Data on ten variants can be found in IntAct's records for PubMed 25737013.

B1: Splicing factor 3B subunit 2 (Homo sapiens), Q13435 (parent)
chain: MATEHPEPPKAELQLPPPPPPGHYGAWAAQELQAKLAEIGAPIQGNREELVERLQSYTRQTGIVLNRPVLRGEDGDKAAPPPMSAQLPGIPMPPPPLGLPPLQPPPPPPPPPPGLGLGFPMAHPPNLGPPPPLRVGEPVALSEEERLKLAQQQAALLMQQEERAKQQGDHSLKEHELLEQQKRAAVLLEQERQQEIAKMGTPVPRPPQDMGQIGVRTPLGPRVAAPVGPVGPTPTVLPMGAPVPRPRGPPPPPGDENREMDDPSVGPKIPQALEKILQLKESRQEEMNSQQEEEEMETDARSSLGQSASETEEDTVSVSKKEKNRKRRNRKKKKKPQRVRGVSSESSGDREKDSTRSRGSDSPAADVEIEYVTEEPEIYEPNFIFFKRIFEAFKLTDDVKKEKEKEPEKLDKLENSAAPKKKGFEEEHKDSDDDSSDDEQEKKPEAPKLSKKKLRRMNRFTVAELKQLVARPDVVEMHDVTAQDPKLLVHLKATRNSVPVPRHWCFKRKYLQGKRGIEKPPFELPDFIKRTGIQEMREALQEKEEQKTMKSKMREKVRPKMGKIDIDYQKLHDAFFKWQTKPKLTIHGDLYYEGKEFETRLKEKKPGDLSDELRISLGMPVGPNAHKVPPPWLIAMQRYGPPPSYPNLKIPGLNSPIPESCSFGYHAGGWGKPPVDETGKPLYGDVFGTNAAEFQTKTEEEEIDRTPWGELEPSDEESSEEEEEEESDEDKPDETGFITPADSGLITPGGFSSVPAGMETPELIELRKKKIEEAMDGSETPQLFTVLPEKRTATVGGAMMGSTHIYDMSTVMSRKGPAPELQGVEVALAPEELELDPMAMTQKYEEHVREQQAQVEKEDFSDMVAEHAAKQKQKKRKAQPQDSRGGSKKYKEFKF
partner: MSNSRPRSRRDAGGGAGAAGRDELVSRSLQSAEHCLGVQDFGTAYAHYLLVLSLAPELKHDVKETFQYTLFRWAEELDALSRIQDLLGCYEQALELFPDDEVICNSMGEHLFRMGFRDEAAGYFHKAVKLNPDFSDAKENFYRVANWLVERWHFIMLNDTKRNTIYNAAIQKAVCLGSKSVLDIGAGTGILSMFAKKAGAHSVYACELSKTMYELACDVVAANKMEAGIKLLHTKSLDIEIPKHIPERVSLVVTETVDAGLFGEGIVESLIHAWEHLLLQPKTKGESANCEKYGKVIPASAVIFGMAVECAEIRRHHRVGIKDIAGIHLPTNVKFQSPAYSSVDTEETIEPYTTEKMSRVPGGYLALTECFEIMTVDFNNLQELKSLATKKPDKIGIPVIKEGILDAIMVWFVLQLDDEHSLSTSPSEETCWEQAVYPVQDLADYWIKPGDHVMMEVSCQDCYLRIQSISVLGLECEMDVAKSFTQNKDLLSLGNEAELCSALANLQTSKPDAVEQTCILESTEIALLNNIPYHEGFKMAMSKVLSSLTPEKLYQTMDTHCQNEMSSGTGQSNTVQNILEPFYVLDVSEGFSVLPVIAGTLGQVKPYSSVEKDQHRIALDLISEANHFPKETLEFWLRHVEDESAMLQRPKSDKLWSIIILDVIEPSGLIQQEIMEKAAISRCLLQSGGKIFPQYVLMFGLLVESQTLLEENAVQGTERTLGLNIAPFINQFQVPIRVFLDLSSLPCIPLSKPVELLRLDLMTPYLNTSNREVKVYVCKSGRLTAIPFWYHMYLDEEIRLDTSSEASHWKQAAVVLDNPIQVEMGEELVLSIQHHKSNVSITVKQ
B2: Protein arginine N-methyltransferase 9 (Homo sapiens), Q6P2P2 (parent)
chain: B1 partner
B3: Splicing factor 3B subunit 2 (Homo sapiens), Q13435 (parent)
chain: B1 chain

The variants in the first assay derive from B1. The note with it: with anm9_human PRMT9, Q6P2P2.
On to R508K, for which the “effect of a mutation on the interaction” value was “with no effect”.

Variants of B1 are the subject of another assay. The note with it: with anm9_human PRMT9, Q6P2P2. This is another data set of the same source.
For the variant R495K, the “effect of a mutation on the interaction” value is on record as “with no effect”.
For R530K, the “effect of a mutation on the interaction” value is listed as “with no effect”.
R515K: the “effect of a mutation on the interaction” value is “with no effect”.
On the same count and under the same terms, to R537K belongs “with no effect”; to R471K, “with no effect”; to R455K;R456K;R459K, “with no effect”.
For the variant R502K, the “effect of a mutation on the interaction” value is “with no effect”.

In another assay the parent is B2. To be noted: with sf3b2_human SF3B2, Q13435.
For L182A;D183A;I184A;G185A, the “effect of a mutation on the interaction” value was “disrupting interaction strength”.

A further assay covers variants of B3. To be noted: with smn_human SMN1, Q16637.
Chain of smn_human SMN1, Q16637 (Q16637 whole entry): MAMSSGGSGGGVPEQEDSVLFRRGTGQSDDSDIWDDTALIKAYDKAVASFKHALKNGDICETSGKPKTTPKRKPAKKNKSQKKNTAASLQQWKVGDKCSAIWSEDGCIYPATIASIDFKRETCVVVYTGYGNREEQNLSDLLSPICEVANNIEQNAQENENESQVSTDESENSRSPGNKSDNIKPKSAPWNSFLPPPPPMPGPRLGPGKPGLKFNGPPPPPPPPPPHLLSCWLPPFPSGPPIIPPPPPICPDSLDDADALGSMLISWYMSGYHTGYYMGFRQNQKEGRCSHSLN
In the case of R508K, the “effect of a mutation on the interaction” value was “disrupting interaction strength”.
